Assay results reported in publication PMC11648230 (2024).

Biological target: Aquifex aeolicus TsaD2B^mut2 tetramer (Aquifex aeolicus | Thermotoga maritima, UniProt O66986 1-335)
Assay: ITC

Sequence of Aquifex aeolicus TsaD2B^mut2 tetramer (O66986 whole entry, chain 1 of 2): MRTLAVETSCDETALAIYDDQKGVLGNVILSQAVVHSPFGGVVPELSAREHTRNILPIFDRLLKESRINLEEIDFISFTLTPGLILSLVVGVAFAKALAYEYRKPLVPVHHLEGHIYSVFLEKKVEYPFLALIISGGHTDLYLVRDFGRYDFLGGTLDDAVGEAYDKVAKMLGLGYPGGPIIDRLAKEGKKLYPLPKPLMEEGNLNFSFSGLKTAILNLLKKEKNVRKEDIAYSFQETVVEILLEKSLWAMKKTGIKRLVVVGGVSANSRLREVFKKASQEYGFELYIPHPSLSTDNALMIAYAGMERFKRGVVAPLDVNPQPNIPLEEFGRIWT
Sequence of Aquifex aeolicus TsaD2B^mut2 tetramer (chain, as listed by the source, chain 2 of 2): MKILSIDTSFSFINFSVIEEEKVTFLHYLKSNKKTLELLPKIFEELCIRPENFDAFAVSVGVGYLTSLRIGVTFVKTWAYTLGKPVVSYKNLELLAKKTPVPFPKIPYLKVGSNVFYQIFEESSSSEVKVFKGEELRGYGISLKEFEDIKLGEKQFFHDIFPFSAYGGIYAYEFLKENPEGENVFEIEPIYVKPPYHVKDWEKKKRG

Kd: 2870 nM
B1: Aquifex aeolicus TsaE (enzyme)
chain: MELLKEVILESEEDTYKLAEEIAQLLKGSEVICLRGTLGAGKTTFVKALAKALKVKNPSAVRSPTFTLVNEYETDKGKLIHIDLYRVPDFDYSEFIGEGILAVEWEERDKPCDIILEIEILDENKRKVRIYRK
modifications: T. maritima TsaB C-tail WEKKKRG (200-206) grafted after residue 200 of A. aeolicus TsaB (new positions 201-207); C-terminal 6His tag on TsaB omitted; TsaD carries a bound divalent metal (Fe2+ or Zn2+); Cys10 of TsaD seen oxidised (CSO) in the crystal; ITC with TsaE done with AMPPNP/Mg2+
